Data published in doi:10.1101/2021.12.21.473685 (bioRxiv, 2021).

Key:
[1] = target: PARylated PARP2 (human, UniProt Q9UGN5-2 1-570, poly(ADP-ribose) chains added by in vitro automodification; modified residues not stated); assay: ITC
[2] = target: ZnF(1-2-3)-BRCT PARP1 (Homo sapiens, UniProt P09874 1-494); assay: fluorescence polarization
[3] = target: PARP1 full length (Homo sapiens, UniProt P09874 1-1014); assay: fluorescence polarization
Chain of PARP1 full length (P09874 whole entry): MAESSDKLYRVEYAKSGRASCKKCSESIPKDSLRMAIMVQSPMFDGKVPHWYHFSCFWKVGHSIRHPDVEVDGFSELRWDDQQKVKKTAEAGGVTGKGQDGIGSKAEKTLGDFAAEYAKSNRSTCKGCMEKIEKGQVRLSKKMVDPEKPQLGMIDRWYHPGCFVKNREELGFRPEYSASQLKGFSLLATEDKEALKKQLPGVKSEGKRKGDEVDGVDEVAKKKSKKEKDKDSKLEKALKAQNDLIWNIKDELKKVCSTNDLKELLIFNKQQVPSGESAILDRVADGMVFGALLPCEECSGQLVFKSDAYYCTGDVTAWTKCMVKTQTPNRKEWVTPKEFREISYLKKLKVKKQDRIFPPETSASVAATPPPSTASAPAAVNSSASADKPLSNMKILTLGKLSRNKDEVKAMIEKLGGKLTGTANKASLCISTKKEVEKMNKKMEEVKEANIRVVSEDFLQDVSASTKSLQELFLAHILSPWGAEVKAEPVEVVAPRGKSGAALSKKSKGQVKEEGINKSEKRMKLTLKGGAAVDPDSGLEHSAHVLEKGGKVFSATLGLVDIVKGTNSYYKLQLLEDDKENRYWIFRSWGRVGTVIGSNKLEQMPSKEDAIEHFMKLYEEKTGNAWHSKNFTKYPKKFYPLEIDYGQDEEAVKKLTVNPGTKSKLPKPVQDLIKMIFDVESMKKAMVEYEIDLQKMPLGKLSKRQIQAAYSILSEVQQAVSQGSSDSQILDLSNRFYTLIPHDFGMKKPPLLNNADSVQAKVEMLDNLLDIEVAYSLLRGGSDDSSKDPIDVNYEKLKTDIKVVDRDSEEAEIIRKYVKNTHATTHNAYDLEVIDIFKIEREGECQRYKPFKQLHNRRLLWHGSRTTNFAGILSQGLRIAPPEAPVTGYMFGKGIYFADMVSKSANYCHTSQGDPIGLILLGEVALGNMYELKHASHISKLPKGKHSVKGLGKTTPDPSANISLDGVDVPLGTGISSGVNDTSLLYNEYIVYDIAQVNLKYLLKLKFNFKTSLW

Chain of ZnF(1-2-3)-BRCT PARP1 (P09874 1-494): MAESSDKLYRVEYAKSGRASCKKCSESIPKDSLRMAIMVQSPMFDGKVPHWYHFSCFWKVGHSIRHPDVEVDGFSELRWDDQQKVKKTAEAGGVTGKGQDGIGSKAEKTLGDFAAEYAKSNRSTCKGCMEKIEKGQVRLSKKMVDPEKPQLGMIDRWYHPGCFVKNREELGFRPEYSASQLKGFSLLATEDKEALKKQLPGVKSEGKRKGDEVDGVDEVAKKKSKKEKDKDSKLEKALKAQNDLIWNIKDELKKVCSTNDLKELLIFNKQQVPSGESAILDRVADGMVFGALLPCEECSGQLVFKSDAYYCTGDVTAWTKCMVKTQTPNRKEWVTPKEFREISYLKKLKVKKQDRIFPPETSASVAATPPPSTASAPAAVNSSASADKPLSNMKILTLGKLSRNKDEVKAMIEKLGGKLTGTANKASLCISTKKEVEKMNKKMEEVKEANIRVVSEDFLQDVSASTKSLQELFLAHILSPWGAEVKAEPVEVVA

Row | Molecule | Kd [1] | Kd [2] | Kd [3]
1 | BRCT domain of PARP1 (from UniProt P09874 385-476) (domain or fragment) | 2000 nM |  | 
2 | GCTGGCTTCGTAAGAAGCCAGCTCGCGGTCAGCTTGCTGACCGCG (structured_DNA, 5'-phosphate (printed for unlabelled oligo)) [SSB DNA dumbbell 45-mer (5-FAM labelled)] |  | ~70 nM | ~64 nM
3 | DSB DNA (5-FAM labelled) (dsDNA) DNA 1: GCCTACCGGTTCGAATGGCAGC DNA 2: GCTGCCATTCGAACCGGTAGGC |  | ~88 nM | ~15 nM

Second part, led by results:

Row | Kd [1] | Molecule | Kd [2] | Kd [3]
4 | 3000 nM | WGR domain of PARP1 (domain or fragment) |  | 
5 | 2000 nM | ZnF3 domain of PARP1 (domain or fragment) |  | 
6 | 40 nM | ZnF3-BRCT-WGR of PARP1 (domain or fragment) VDEVAKKKSKKEKDKDSKLEKALKAQNDLIWNIKDELKKVCSTNDLKELLIFNKQQVPSGESAILDRVADGMVFGALLPCEECSGQLVFKSDAYYCTGDVTAWTKCMVKTQTPNRKEWVTPKEFREISYLKKLKVKKQDRIFPPETSASVAATPPPSTASAPAAVNSSASADKPLSNMKILTLGKLSRNKDEVKAMIEKLGGKLTGTANKASLCISTKKEVEKMNKKMEEVKEANIRVVSEDFLQDVSASTKSLQELFLAHILSPWGAEVKAEPVEVVAPRGKSGAALSKKSKGQVKEEGINKSEKRMKLTLKGGAAVDPDSGLEHSAHVLEKGGKVFSATLGLVDIVKGTNSYYKLQLLEDDKENRYWIFRSWGRVGTVIGSNKLEQMPSKEDAIEHFMKLYEEKTGNAWHSKNFTKYPKKFYPLEIDYGQDEEAVKKLTVNPGT |  | 
